The values that follow come from patent US20240092898A1 (BIVICTRIX, published 2024).

Test [1] deals with T1, CD7 (human, UniProt P09564 26-180, limits assumed).
T1 construct: also called human CD7
T1 sequence (looked up): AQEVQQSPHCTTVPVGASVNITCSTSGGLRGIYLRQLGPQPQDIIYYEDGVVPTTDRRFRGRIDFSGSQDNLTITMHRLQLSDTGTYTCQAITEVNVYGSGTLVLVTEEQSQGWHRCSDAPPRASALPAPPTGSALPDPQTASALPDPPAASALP
In words: SPR. A general note: Surface plasmon resonance follows binding to a sensor surface in real time, without labels.

The target in test [2] is T1, CD7. Nature of the test: SPR; ratio of KD to WT.

B1: 7-AA-1 (antibody, V domains shown)
VH: QVQLQESGAELVKPGASVKLSCKASGYTFTSYWMHWVKQRPGQGLEWIGKINPSNGRTNYNEKFKSKATLTVDKSSSTAYMQLSSLTSEDSAVYYCARGGVYYDLYYAALDYWGQGTTVTVSS
VL: DIELTQSPATLSVTPGDSVSLSCRASQSISNNLHWYQQKSHESPRLLIKSASQSISGIPSRFSGSGSGTDFTLSINSVETEDFGMYFCQQSNSWPYTFGGGTKLEIKR
B1 gave a Kd with CD7 [1] of 44.5 nM. Besides, the “Fold reduction in binding affinity compared to WT (Kd)” value in the test with CD7 [2] is 17 fold.

What is called Kd is the constant that tells how readily two partners part at equilibrium. A low value points to a tighter complex.
